One may read the Kd as the constant that tells how readily two partners part at equilibrium.

The source of these data is patent US20200131270A1 (NATIONAL UNIVERSITY CORPORATION HOKKAIDO UNIVERSITY, published 2020).

The target of assay [1] is T1, canine CD80-Ig (canine; rabbit).
T1 construct: extracellular domain;domain: Fc; also called cCD80-Ig; cCD80
As to the kind of experiment: SPR (Biacore X100): cPD-L1-His captured by anti-histidine antibody on CM5 chip, canine CD80-Ig as analyte. (Surface plasmon resonance follows binding to a sensor surface in real time, without labels.)

The target in assay [2] is T2, canine PD-1-Ig (canine; rabbit).
T2 construct: extracellular domain;domain: Fc; also called cPD-1-Ig; cPD-1
As to the kind of experiment: SPR (Biacore X100): cPD-L1-His captured by anti-histidine antibody on CM5 chip, canine PD-1-Ig as analyte.

B1: canine PD-L1-His (ligand)
chain: FTITVSKDLYVVEYGGNVTMECKFPVEKQLNLFALIVYWEMEDKKIIQFVNGKEDLKVQHSSYSQRAQLLKDQLFLGKAALQITDVRLQDAGVYCCLIGYGGADYKRITLKVHAPYRNISQRISVDPVTSEHELMCQAEGYPEAEVIWTSSDHRVLSGKTTITNSNREEKLFNVTSTLNINATANEIFYCTFQRSGPEENNTAELVIPERLPVPASERTH
Consider B1, for which the Kd is 24.3 nM in assay [1] and 25.4 nM in assay [2].
